Experimental data taken from patent US12702694B2, “Methods for identification, assessment, prevention, and treatment of metabolic disorders using SLIT2” (Dana-Farber Cancer Institute, Inc., priority 2015, dated 2026).

How the values were obtained:
diet-induced obese mice = assay: Intraperitoneal glucose tolerance test; format: in vivo, Mus musculus
Procedure: Glucose tolerance tests were performed on mice 7 days post-injection with adenovirus. […] Animals were fasted overnight and then received intraperitoneal glucose at […]. Energy expenditure was analyzed using a Comprehensive Lab Animal Monitoring System (Columbus Instruments). Cold exposure and thermoneutrality experiments were performed in Balb/c mice at 4° C. or 30° C., respectively. Total levels of cholesterol, free fatty acids, triglycerides and insulin were measured at the Core Facility at Joslin Diabetes Center.

UCP1 = UCP1 immunohistochemistry on adipose tissue sections; format: in vivo, Mus musculus; settings: day 7
Procedure: Tissues were fixed in 4% paraformaldehyde. Paraffin embedding and sectioning were done by the Dana-Farber/Harvard Cancer Center Research Pathology core facility. For UCP1 immunohistochemistry, slides were deparaffinized in xylene, hydrated in descending 95%, 80% and 70% ethanol, and rinsed in water before heat-mediated antigen retrieval in 10 mM, pH 6.0 sodium citrate buffer. Quenching of endogenous peroxidases was performed using peroxidase quenching solution (Invitrogen). Slides were blocked in 10% goat serum and incubated with rabbit polyclonal UCP1 antibody (Abcam, ab10983) at […] in PBS-T/1% BSA overnight at 4° C. Slides were washed in PBS-T and incubated with 1:500 donkey anti-rabbit IgG HRP-linked antibody (GE healthcare) before developing using a SuperPicture™ 3rd Gen IHC Detection Kit (Invitrogen). Hematoxylin was used as counterstain. […] Digital images were captured with a Nikon Digital Sight DS-Fil color camera and NIS-Elements acquisition software.

[1] = tested on: primary inguinal adipocytes; assay: Thermogenic gene expression (qRT-PCR) in primary adipocytes treated with recombinant protein; format: cell-based, Mus musculus
Procedure: Inguinal and brown stromal-vascular fractions were obtained from 6 weeks old male or newborn mice (postnatal days 5-10) for white and brown fat cultures, respectively. Inguinal fat tissue was dissected and washed with PBS, minced and digested for 45 min at 37° C. in PBS containing 10 mM CaCl2), 2.4 U/ml dispase II (Roche) and 10 mg/ml collagenase D (Roche). Brown fat tissue was dissected, washed with PBS, minced and digested for 45 min at 37° C. in PBS containing 1.3 mM CaCl2, 123 mM NaCl, 5 mM KCl, 5.0 mM glucose, 100 mM HEPES, 4% BSA and 1.5 mg/ml collagenase B (Roche). Digested tissue was filtered through a 100-μm cell strainer and centrifuged at 600 g for 10 min. Pelleted inguinal stromal-vascular cells were grown to confluence and induced to differentiate by an adipogenic cocktail containing 0.02 μM insulin, 1 μM rosiglitazone, 5 μM dexamethasone, 0.5 μM isobuthylmethylxanthine. For differentiation of brown fat cells, 1 nM T3 and 125 μM indomethacin were also added to the adipogenic cocktail. Two days after induction, cells were maintained in adipocyte culture medium containing 0.02 μM insulin and 1 μM rosiglitazone. Where indicated, cells were treated with forskolin (10 μM), norepinephrine (100 nM) for 4 h or with recombinant proteins (1 μg/ml, R&D systems) for 24 h or for the indicated times. For adenoviral overexpression of Slit2-FL, Slit2-N, Slit2-C, LacZ or Cre, virus was added at day 2 of differentiation at a titer of 10^8 particles/well and cells were analyzed at day 6-7. […]
RNA was extracted from cultured cells or frozen tissue samples using TRIzol®, purified with QIAGEN RNeasy® minicolumns. Normalized RNA was reversed transcribed using a high-capacity cDNA reverse transcription lot (Applied Biosystems) and cDNA was analyzed by qRT-CPR. Relative mRNA levels were calculated using the comparative CT method and normalized to cyclophilin […]. […]

PKA signaling pathway = assay: Western blotting of PKA and related signaling in primary inguinal cells; format: cell-based, Mus musculus; settings: for PKA signaling after treatment with conditioned media: serum-free conditioned media from expressing cells, acute treatment (30 min), FIG. 10G
Procedure: Inguinal and brown stromal-vascular fractions were obtained from 6 weeks old male or newborn mice (postnatal days 5-10) for white and brown fat cultures, respectively. Inguinal fat tissue was dissected and washed with PBS, minced and digested for 45 min at 37° C. in PBS containing 10 mM CaCl2), 2.4 U/ml dispase II (Roche) and 10 mg/ml collagenase D (Roche). Brown fat tissue was dissected, washed with PBS, minced and digested for 45 min at 37° C. in PBS containing 1.3 mM CaCl2, 123 mM NaCl, 5 mM KCl, 5.0 mM glucose, 100 mM HEPES, 4% BSA and 1.5 mg/ml collagenase B (Roche). Digested tissue was filtered through a 100-μm cell strainer and centrifuged at 600 g for 10 min. Pelleted inguinal stromal-vascular cells were grown to confluence and induced to differentiate by an adipogenic cocktail containing 0.02 μM insulin, 1 μM rosiglitazone, 5 μM dexamethasone, 0.5 μM isobuthylmethylxanthine. For differentiation of brown fat cells, 1 nM T3 and 125 μM indomethacin were also added to the adipogenic cocktail. Two days after induction, cells were maintained in adipocyte culture medium containing 0.02 μM insulin and 1 μM rosiglitazone. Where indicated, cells were treated with forskolin (10 μM), norepinephrine (100 nM) for 4 h or with recombinant proteins (1 μg/ml, R&D systems) for 24 h or for the indicated times. For adenoviral overexpression of Slit2-FL, Slit2-N, Slit2-C, LacZ or Cre, virus was added at day 2 of differentiation at a titer of 10^8 particles/well and cells were analyzed at day 6-7. Where indicated, cells were treated with the drugs Erlotinib (SelleckChem), Lapatinib (Santa Cruz), PD0325901 (Santa Cruz), Propranolol (SelleckChem), H89 dihydrochloride (Santa Cruz), SQ-22536 (Santa Cruz) for indicated time points and concentrations.
For Western blotting, homogenized tissues, whole cell lysates, or concentrated serum free conditioned medium were lysed in RIPA buffer containing protease inhibitor cocktail (Thermo Scientific) and phosphatase inhibitor cocktail (Thermo Scientific), separated by SDS-PAGE and transferred to Immobilon-P® membranes (Millipore). For Western blotting of plasma samples, 1 μl of plasma was prepared containing 2× sample buffer (Invitrogen) with reducing agent, boiled and analyzed using Western blot against V5, FLAG, or the indicated antibody. V5-antibody was from Life Technologies and anti-Flag M2-HRP (A8592) from Sigma Aldrich. Anti-Slit2 antibody used was from Abcam (Abcam ab134166). Phospho-PKA Substrate, phospho-PKC Substrate, phospho-ERK1/2, total ERK, phospho-AKT, total AKT, phospho-AMPK, total AMPK, phospho-ATGL, ATGL, phospho-EGFR and EGFR were from Cell Signaling. Protein array was from R&D Systems (Proteome Profiler Mouse Phospho-RTK Array Kit, ARY014). Silverstain (SilverQuest™ Silver Staining Kit, LC6070) was purchased from Thermo Fisher.

[2] = Slit2-C-transduced cells, FIG. 10B

Molecule | glucose tolerance (diet-induced obese mice; diet-induced obese mice, circulating Slit2-C, day 7, FIG. 8G) | UCP1 staining in inguinal white fat depots (UCP1; Slit2-C vs control animals, FIGS. 6E, 6G) | changes in thermogenic gene expression in white and brown adipocytes in culture ([1]; 2 h after purified protein treatment, FIG. 10N) | activation of protein kinase C (PKC) substrates and ATGL S406 (PKA signaling pathway; FIG. 10E) | protein levels of UCP1 (PKA signaling pathway; Slit2-C overexpression, FIGS. 10B, 10F) | phosphorylation of hormone sensitive lipase (HSL S660) (PKA signaling pathway; [2]) | total HSL (PKA signaling pathway; [2]) | phosphorylation of PKA substrates (PKA signaling pathway; Slit2-C-transduced vs lacZ-transduced cells, FIG. 10B) | PKA signaling after treatment with conditioned media (PKA signaling pathway) | subset of PKA substrate phosphorylations after purified protein treatment (PKA signaling pathway; time-dependent and dose-dependent, FIGS. 10M, 11F) | glucose tolerance, compared with Slit2-C experiments (diet-induced obese mice; full-length Slit2 adenovirus, FIG. 9F) | iWAT UCP1 protein (UCP1; histological sections, i.v. Slit2 adenovirus) | expression of other genes associated with thermogenesis, including Dio2 and Cidea ([1]; recombinant Slit2 protein 1 μg/ml, 24 hours, FIG. 3A) | increase in Ucp1 mRNA ([1]; recombinant Slit2 protein 1 μg/ml, 24 hours, fully differentiated primary inguinal adipocytes, FIG. 3A)
Slit2-C: ~50 kDa C-terminal cleavage fragment of Slit2 beginning at TSP (SEQ ID NO: 22); adenovirally expressed or purified FLAG-tagged protein (protein, listed as Homo sapiens, FLAG tag, adenovirally expressed or purified FLAG-tagged protein) TSPCDNFDCQNGAQCIIRINEPICQCLPGYLGEKCEKLVSVNFVNKESYLQIPSAKVRPQTNITLQIATDEDSGILLYKGDKDHIAVELYRGRVRASYDTGSHPASAIYSVETINDGNFHIVELLTLDSSLSLSVDGGSPKVITNLSKQSTLNFDSPLYVGGMPGKNNVASLRQAPGQNGTSFHGCIRNLYINSELQDFRKMPMQTGILPGCEPCHKKVCAHGMCQPSSQSGFTCECEEGWMGPLCDQRTNDPCLGNKCVHGTCLPINAFSYSCKCLEGHGGVLCDEEEDLFNPCQMIKCKHGKCRLSGVGQPYCECNSGFTGDSCDREISCRGERIRDYYQKQQGYAACQTTKKVSRLECRGGCAGGQCCGPLRSKRRKYSFECTDGSSFVDEVEKVVKCGCARCAS | dramatically improve | multiple pockets of UCP1-positive cells | induced | minimal | increased | induced | unaffected | robust phosphorylation | increased | increased |  |  |  | 
Slit2: Slit family secreted extracellular matrix protein, full length ~180 kDa; used as commercial recombinant protein or adenovirally expressed (protein) QACPAQCSCSGSTVDCHGLALRSVPRNIPRNTERLDLNGNNITRITKIDFAGLRHLRVLQLMENRISTIERGAFQDLKELERLRLNRNNLQLFPELLFLGTAKLYRLDLSENQIQAIPRKAFRGAVDIKNLQLDYNQISCIEDGAFRALRDLEVLTLNNNNITRLSVASFNHMPKLRTFRLHSNNLYCDCHLAWLSDWLRQRPRVGLYTQCMGPSHLRGHNVAEVQKREFVCSGHQSFMAPSCSVLHCPAACTCSNNIVDCRGKGLTEIPTNLPETITEIRLEQNSIRVIPPGAFSPYKKLRRLDLSNNQISELAPDAFQGLRSLNSLVLYGNKITELPKSLFEGLFSLQLLLLNANKINCLRVDAFQDLHNLNLLSLYDNKLQTVAKGTFSALRAIQTMHLAQNPFICDCHLKWLADYLHTNPIETSGARCTSPRRLANKRIGQIKSKKFRCSGTEDYRSKLSGDCFADLACPEKCRCEGTTVDCSNQRLNKIPDHIPQYTAELRLNNNEFTVLEATGIFKKLPQLRKINFSNNKITDIEEGAFEGASGVNEILLTSNRLENVQHKMFKGLESLKTLMLRSNRISCVGNDSFIGLGSVRLLSLYDNQITTVAPGAFDSLHSLSTLNLLANPFNCNCHLAWLGEWLRRKRIVTGNPRCQKPYFLKEIPIQDVAIQDFTCDDGNDDNSCSPLSRCPSECTCLDTVVRCSNKGLKVLPKGIPKDVTELYLDGNQFTLVPKELSNYKHLTLIDLSNNRISTLSNQSFSNMTQLLTLILSYNRLRCIPPRTFDGLKSLRLLSLHGNDISVVPEGAFNDLSALSHLAIGANPLYCDCNMQWLSDWVKSEYKEPGIARCAGPGEMADKLLLTTPSKKFTCQGPVDITIQAKCNPCLSNPCKNDGTCNNDPVDFYRCTCPYGFKGQDCDVPIHACISNPCKHGGTCHLKEGENAGFWCTCADGFEGENCEVNIDDCEDNDCENNSTCVDGINNYTCLCPPEYTGELCEEKLDFCAQDLNPCQHDSKCILTPKGFKCDCTPGYIGEHCDIDFDDCQDNKCKNGAHCTDAVNGYTCVCPEGYSGLFCEFSPPMVLPRTSPCDNFDCQNGAQCIIRINEPICQCLPGYLGEKCEKLVSVNFVNKESYLQIPSAKVRPQTNITLQIATDEDSGILLYKGDKDHIAVELYRGRVRASYDTGSHPASAIYSVETINDGNFHIVELLTLDSSLSLSVDGGSPKVITNLSKQSTLNFDSPLYVGGMPGKNNVASLRQAPGQNGTSFHGCIRNLYINSELQDFRKMPMQTGILPGCEPCHKKVCAHGMCQPSSQSGFTCECEEGWMGPLCDQRTNDPCLGNKCVHGTCLPINAFSYSCKCLEGHGGVLCDEEEDLFNPCQMIKCKHGKCRLSGVGQPYCECNSGFTGDSCDREISCRGERIRDYYQKQQGYAACQTTKKVSRLECRGGCAGGQCCGPLRSKRRKYSFECTDGSSFVDEVEKVVKCGCARCAS |  |  |  |  |  |  |  |  | increased |  | comparable results | increased | large increases | ~ 3 fold
